# Assay results from IntAct's records for PubMed 17525332.
# B1: DNA replication complex GINS protein PSF2 (Homo sapiens), Q9Y248 (parent)
# chain: MDAAEVEFLAEKELVTIIPNFSLDKIYLIGGDLGPFNPGLPVEVPLWLAINLKQRQKCRLLPPEWMDVEKLEKMRDHERKEETFTPMPSPYYMELTKLLLNHASDNIPKADEIRTLVKDMWDTRIAKLRVSADSFVRQQEAHAKLDNLTLMEINTSGTFLTQALNHMYKLRTNLQPLESTQSQDF
# B2: Zinc finger CCHC domain-containing protein 8 (Homo sapiens), Q6NZY4 (parent)
# chain: MAAEVYFGDLELFEPFDHPEESIPKPVHTRFKDDDGDEEDENGVGDAELRERLRQCEETIEQLRAENQELKRKLNILTRPSGILVNDTKLDGPILQILFMNNAISKQYHQEIEEFVSNLVKRFEEQQKNDVEKTSFNLLPQPSSIVLEEDHKVEESCAIKNNKEAFSVVGSVLYFTNFCLDKLGQPLLNENPQLSEGWEIPKYHQVFSHIVSLEGQEIQVKAKRPKPHCFNCGSEEHQMKDCPMPRNAARISEKRKEYMDACGEANNQNFQQRYHAEEVEERFGRFKPGVISEELQDALGVTDKSLPPFIYRMRQLGYPPGWLKEAELENSGLALYDGKDGTDGETEVGEIQQNKSVTYDLSKLVNYPGFNISTPRGIPDEWRIFGSIPMQACQQKDVFANYLTSNFQAPGVKSGNKRSSSHSSPGSPKKQKNESNSAGSPADMELDSDMEVPHGSQSSESFQFQPPLPPDTPPLPRGTPPPVFTPPLPKGTPPLTPSDSPQTRTASGAVDEDALTLEELEEQQRRIWAALEQAESVNSDSDVPVDTPLTGNSVASSPCPNELDLPVPEGKTSEKQTLDEPEVPEIFTKKSEAGHASSPDSEVTSLCQKEKAELAPVNTEGALLDNGSVVPNCDISNGGSQKLFPADTSPSTATKIHSPIPDMSKFATGITPFEFENMAESTGMYLRIRSLLKNSPRNQQKNKKASE
# B3: Origin recognition complex subunit 3 (Homo sapiens), Q9UBD5 (parent)
# chain: MATSSMSKGCFVFKPNSKKRKISLPIEDYFNKGKNEPEDSKLRFETYQLIWQQMKSENERLQEELNKNLFDNLIEFLQKSHSGFQKNSRDLGGQIKLREIPTAALVLGVNVTDHDLTFGSLTEALQNNVTPYVVSLQAKDCPDMKHFLQKLISQLMDCCVDIKSKEEESVHVTQRKTHYSMDSLSSWYMTVTQKTDPKMLSKKRTTSSQWQSPPVVVILKDMESFATKVLQDFIIISSQHLHEFPLILIFGIATSPIIIHRLLPHAVSSLLCIELFQSLSCKEHLTTVLDKLLLTTQFPFKINEKVLQVLTNIFLYHDFSVQNFIKGLQLSLLEHFYSQPLSVLCCNLPEAKRRINFLSNNQCENIRRLPSFRRYVEKQASEKQVALLTNERYLKEETQLLLENLHVYHMNYFLVLRCLHKFTSSLPKYPLGRQIRELYCTCLEKNIWDSEEYASVLQLLRMLAKDELMTILEKCFKVFKSYCENHLGSTAKRIEEFLAQFQSLDETKEEEDASGSQPKGLQKTDLYHLQKSLLEMKELRRSKKQTKFEVLRENVVNFIDCLVREYLLPPETQPLHEVVYFSAAHALREHLNAAPRIALHTALNNPYYYLKNEALKSEEGCIPNIAPDICIAYKLHLECSRLINLVDWSEAFATVVTAAEKMDANSATSEEMNEIIHARFIRAVSELELLGFIKPTKQKTDHVARLTWGGC
# Variants of: B1
# Conditions: with chk2_human CHEK2, O96017
# Chain of chk2_human CHEK2, O96017 (O96017 whole entry): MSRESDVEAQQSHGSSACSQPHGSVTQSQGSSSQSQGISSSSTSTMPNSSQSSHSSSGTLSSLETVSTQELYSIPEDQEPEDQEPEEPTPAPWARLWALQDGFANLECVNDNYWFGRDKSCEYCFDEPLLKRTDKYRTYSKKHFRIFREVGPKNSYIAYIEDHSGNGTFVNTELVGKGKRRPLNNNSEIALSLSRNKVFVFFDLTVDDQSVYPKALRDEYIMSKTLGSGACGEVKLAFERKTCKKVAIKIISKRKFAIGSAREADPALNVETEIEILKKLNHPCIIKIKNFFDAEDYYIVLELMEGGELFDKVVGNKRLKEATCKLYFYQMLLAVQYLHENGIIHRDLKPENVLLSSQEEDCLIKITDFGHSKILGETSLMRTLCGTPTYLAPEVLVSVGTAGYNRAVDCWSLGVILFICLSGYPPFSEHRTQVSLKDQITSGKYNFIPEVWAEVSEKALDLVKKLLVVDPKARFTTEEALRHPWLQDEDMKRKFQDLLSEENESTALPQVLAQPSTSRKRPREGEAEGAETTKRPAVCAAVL
row,Variant,effect of a mutation on the interaction
1,MDAAEVEFLAEKELVTIIPNFSLDKIYLIGGDLGPFNPGLPVEVPLWLAINLKQRQKCRLLPPEWMDVEKLEKMRDHERKEETFTPMPSPYYMELTKLLLNHASDNIPKADEIRTLVKDMWDTRIAKLRVSADSFVRQQEAHAKLDNLTLMEINTSGTFLTQALNHMYKLRTNLQPLESAQAQDF [T180A;S182A],disrupting interaction

# Variants of: B2
# Conditions: with brca1_human BRCA1, P38398
# Target sequence in this assay (P38398 whole entry, looked up): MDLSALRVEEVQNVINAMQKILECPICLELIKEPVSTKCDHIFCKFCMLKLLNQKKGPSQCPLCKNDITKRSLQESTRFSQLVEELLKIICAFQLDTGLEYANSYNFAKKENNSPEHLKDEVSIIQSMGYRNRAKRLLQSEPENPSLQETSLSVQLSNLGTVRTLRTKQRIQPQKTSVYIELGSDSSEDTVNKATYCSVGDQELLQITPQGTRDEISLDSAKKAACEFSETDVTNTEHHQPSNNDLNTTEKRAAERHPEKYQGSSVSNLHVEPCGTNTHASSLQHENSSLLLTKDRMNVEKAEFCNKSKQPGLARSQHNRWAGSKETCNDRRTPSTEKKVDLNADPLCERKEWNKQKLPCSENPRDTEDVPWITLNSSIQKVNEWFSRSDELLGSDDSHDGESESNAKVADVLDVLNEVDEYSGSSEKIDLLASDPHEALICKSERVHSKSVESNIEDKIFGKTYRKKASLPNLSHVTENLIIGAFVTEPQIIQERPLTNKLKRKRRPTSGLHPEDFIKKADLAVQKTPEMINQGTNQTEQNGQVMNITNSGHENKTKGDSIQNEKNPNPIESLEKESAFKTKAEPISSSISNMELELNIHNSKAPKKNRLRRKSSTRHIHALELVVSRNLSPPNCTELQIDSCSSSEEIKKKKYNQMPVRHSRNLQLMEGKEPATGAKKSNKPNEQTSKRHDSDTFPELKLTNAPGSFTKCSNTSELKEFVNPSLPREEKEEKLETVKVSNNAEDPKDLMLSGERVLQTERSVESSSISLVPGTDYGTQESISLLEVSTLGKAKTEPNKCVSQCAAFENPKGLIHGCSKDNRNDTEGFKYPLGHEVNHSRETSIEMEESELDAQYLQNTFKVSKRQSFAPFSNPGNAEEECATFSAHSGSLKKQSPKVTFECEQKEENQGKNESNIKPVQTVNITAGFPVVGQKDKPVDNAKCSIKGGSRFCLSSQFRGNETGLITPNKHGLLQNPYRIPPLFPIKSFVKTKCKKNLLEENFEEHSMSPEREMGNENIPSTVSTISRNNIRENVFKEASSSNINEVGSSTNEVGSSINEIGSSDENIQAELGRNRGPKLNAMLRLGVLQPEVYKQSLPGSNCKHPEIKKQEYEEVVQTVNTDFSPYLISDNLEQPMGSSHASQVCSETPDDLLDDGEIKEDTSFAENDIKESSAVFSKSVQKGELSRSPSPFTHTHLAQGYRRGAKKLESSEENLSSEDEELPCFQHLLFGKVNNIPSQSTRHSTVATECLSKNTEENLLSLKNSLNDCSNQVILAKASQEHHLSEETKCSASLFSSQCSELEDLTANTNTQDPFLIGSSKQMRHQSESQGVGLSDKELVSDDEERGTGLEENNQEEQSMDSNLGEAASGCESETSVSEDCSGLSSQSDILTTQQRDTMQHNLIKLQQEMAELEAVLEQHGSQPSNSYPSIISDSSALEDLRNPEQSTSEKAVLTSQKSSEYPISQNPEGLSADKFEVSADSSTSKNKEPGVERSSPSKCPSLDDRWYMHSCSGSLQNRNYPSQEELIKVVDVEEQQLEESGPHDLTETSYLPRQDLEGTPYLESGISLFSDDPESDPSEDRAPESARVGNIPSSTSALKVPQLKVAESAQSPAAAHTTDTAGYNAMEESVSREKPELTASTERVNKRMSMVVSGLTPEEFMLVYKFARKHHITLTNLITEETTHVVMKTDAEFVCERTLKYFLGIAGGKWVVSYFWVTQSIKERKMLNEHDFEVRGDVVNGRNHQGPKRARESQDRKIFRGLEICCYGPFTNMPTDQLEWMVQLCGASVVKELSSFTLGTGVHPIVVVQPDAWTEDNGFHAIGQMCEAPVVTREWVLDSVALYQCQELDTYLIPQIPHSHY
row,Variant,effect of a mutation on the interaction
1,S456A,disrupting interaction

# Variants of: B3
# Conditions: with brca1_human BRCA1, P38398
# Target sequence in this assay (P38398 whole entry, looked up): as above
row,Variant,effect of a mutation on the interaction
1,S516A,disrupting interaction
